Source: US20170050988A1, “DOTAM DERIVATIVES FOR THERAPEUTIC USE” (priority 2013, published 2017)
≈ marks a conversion by molar mass, not a printed value. Entries after “also recorded” stand apart in the source; their conditions may differ. Starred links: 1 amine or outer side, 2 acyl side, 3 side chain; linkers in the order of their positions; H or OH if unused. Positions of bridges follow the written chain, without caps; N, C: chain ends. Non-standard residues stand in square brackets, D forms with d. Residues, ends and D or L forms follow the SMILES beside them. Chains are numbered I, II in the order given. *: point of attachment. X1 = CN1/C(=C/C=C/C=C/C2=[N+](CCCCCC(=O)NCCOCCOCCNC(=O)CN3CCN(CC(=O)NCCOCCOCCN[*:1])CCN(CC(=O)NCCOCCOCCN[*:3])CCN(CC(=O)NCCOCCOCCN[*:2])CC3)c3ccc4ccccc4c3C2(C)C)C(C)(C)c2c1ccc1ccccc21; X4 = CN1/C(=C/C=C/C=C/C2=[N+](CCCCCC(=O)NCCOCCOCCN*)c3ccc4ccccc4c3C2(C)C)C(C)(C)c2c1ccc1ccccc21; Sta = CC(C)C[C@H](N)[C@@H](O)CC(=O)O; Isovaleryl = CC(C)CC(=O)*

Tests used:
in vivo = details: male, C57BL/6J, mouse, in vivo
Protocol: (§1) Measurement of In Vivo Half Life of Compounds in Mice
(§2) Male C57 BL/6J mice aged 10 weeks were purchased from Harlan Laboratories (Blackthorn, Bicester, UK). Mice were housed in groups of 6 in individually vented cages, maintained at 21±2° C. on a 12-hour light/dark cycle and with food provided ad libitum. All experimental protocols were performed in compliance with the UK Animals (Scientific Procedures) Act 1986 regulations for the handling and use of laboratory animals (Home Office project license PPL no: 70/7288).
(§3) One hundred nanomoles of each of the compounds were injected into the intra-articular space following induction of anaesthesia by gaseous anaesthetic (2% isofluorane and O2). Planar fluorescence images of the knee joints was captured at the time points indicated by capturing the emission at 700 nm for 1 min after exposure at 630 nm under gaseous anaesthesia (2.5% isofluorane and O2) in a Kodak In Vivo FX Pro (Carestream, Woodbridge, USA). Planar X-ray images were obtained by exposure to X-rays for 20 seconds for co-registration purposes.
(§4) To calculate the half lives of the compounds in the joint, fluorescence images were analysed using the Carestream MI software (version 5.1). Circular regions of interest (ROI) of 25 pixels in diameter were defined to encompass the knee joint, which was defined by co-registration of X-ray images. The mean fluorescence intensity (MFI) of the ROI was obtained. Fluorescence images shown are false coloured using the rainbow spectrum, with purple being the lowest value and red being the highest value, and the range indicated in the figures. […] All statistical analysis was carried out using the Prism Software (Graphpad, La Jolla, USA).
(§5) We further evaluated the binding capacity of the probes to cartilage in vivo using optical imaging. 0.1 μmol of each of the compounds were injected intra-articularly into the knees of mice, and in vivo fluorescent microscopy and X-ray were used to quantify localization and retention. The decay in signal was fitted to a two-phase exponential decay model to describe the rapid clearance of unbound probe from the joint and the slow clearance of bound probe from the cartilage (n=5).

knee joints of mice = experiment: In vivo half life / retention of Cy5.5 probes in mouse knee joints (optical imaging)
Protocol: as §1, §2, §3, §4, §5

Cathepsin D = target: T1, Cathepsin D (Homo sapiens, UniProt P07339); experiment: Cathepsin D enzyme assay; format: biochemical; details: purified Cathepsin D, pH 4.5, 37° C.; read-out: IC50
T1 construct: purchased Biomol Se-199
Protocol: For quantification of Cathepsin D inhibitory activity, an enzymatic assay was used that measures the turnover of a quenched, fluorescenctly-labeled, Cathepsin D-cleavable, peptide substrate over time.
Specifically, 13 ng of purified Cathepsin D enzyme (Biomol; Cat.No. Se-199) was administered per well of a 96 well plate, substance/inhibitor of interest was added and the mixture incubated for 10 min. at 37° C. Then, the enzymatic reaction was started by addition of fluorescenctly-labeled, Cathepsin D-Substrat ([…] (7-Methoxycoumarin-4-yl)-acetyl-Pro-Leu-Gly-Leu-(3 [2,4-dinitrophenyl]-L-2,3-diaminopropionyl)-Ala-Arg-NH2 (Bachem M-1895). The reaction volume amounts to 30 μl and contains 50 mM acetic acid, 200 mM NaCl and 0.003% Brij 35 and was adjusted to pH 4.5 with acetic acid. By cleavage of the peptide chain, the […] is released and the emission of fluorescence dye is measured using excitation/emission wavelengths ([…]) on a Tecan Spectrafluor Plus—instrument at 37° C. for 10 min. For the determination of the compound dose response, a 10 mM DMSO stock solution was diluted and tested in a ten-point, three-fold dilution series run in duplicate beginning at 30 μM final concentration. Data were analyzed using a four-parameter curve fit with a fixed minimum and maximum experimentally defined as the average positive and negative controls on each plate.

[1] = test system: pig articular cartilage explants; experiment: Ex vivo GAG release model with pig articular cartilage explants; format: cell-based; details: explants pre-incubated with 1 μM inhibitor 24 h, then washed
[2] = test system: pig articular cartilage explants; experiment: Ex vivo binding assay with pig articular cartilage explants; details: 5 μM probe, 24 h incubation, washed; integrated fluorescence
Protocol: To evaluate the cartilage targeting affinities of these five DOTAM-derived compounds, we performed an ex vivo binding assay of these Cy 5.5-labeled probes with pig articular cartilage explants. In these ex vivo experiments, whole-depth pig articular cartilage blocks were incubated with 5 μM of each probe for 24 h, washed 3 times for 10 min each with PBS buffer at 37° C. to remove non-binding probes, then imaged using fluorescent microscopy. The intensity of the near infrared fluorescent signal from Cy 5.5 presents the relevant amount of these probes remaining in the cartilage.

[3] = Solubility in phosphate buffer; format: physicochemical; details: phosphate buffer at pH 7.4
[4] = 100 nmol, First Half Life (h), 100 nmol intra-articular, mouse knee, two phase decay fit of fluorescence, fast half life (t1), loss from the joint space
[5] = 100 nmol, Terminal Half Life (h), 100 nmol intra-articular, mouse knee, two phase decay fit, slower half life (t2, t1/2beta), loss of cartilage-bound compound

T1 sequence (P07339 65-412): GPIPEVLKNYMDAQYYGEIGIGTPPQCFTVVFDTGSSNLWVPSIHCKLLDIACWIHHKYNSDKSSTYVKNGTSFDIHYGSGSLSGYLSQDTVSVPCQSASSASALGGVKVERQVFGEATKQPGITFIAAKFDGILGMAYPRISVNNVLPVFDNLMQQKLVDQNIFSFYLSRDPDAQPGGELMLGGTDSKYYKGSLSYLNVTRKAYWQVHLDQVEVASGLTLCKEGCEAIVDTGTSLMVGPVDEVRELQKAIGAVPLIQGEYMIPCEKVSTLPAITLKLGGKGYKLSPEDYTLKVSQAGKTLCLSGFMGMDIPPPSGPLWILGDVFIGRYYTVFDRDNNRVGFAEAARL

CC(=O)N[C@@H](Cc1ccc(O)cc1)C(=O)N[C@@H](CCCNC(=N)N)C(=O)N[C@@H](CC(C)C)C(=O)NCC(=O)N[C@@H](CCCNC(=N)N)C(=O)N[C@@H](Cc1c[nH]c2ccccc12)C(=O)NCCOCCOCCNC(=O)CCCCC[N+]1=C(/C=C/C=C/C=C2/N(C)c3ccc4ccccc4c3C2(C)C)C(C)(C)c2c1ccc1ccccc21 [HHY-258B, AcYRLGRW-Cy5.5] (Ac-YRLGRW-X4)
half-life (in vivo; First Half Life (h)): 2 h
half-life (in vivo; Terminal Half Life (h)): 35 h

CC(=O)N[C@@H](Cc1c[nH]c2ccccc12)C(=O)N[C@@H](Cc1ccc(O)cc1)C(=O)N[C@@H](CCCNC(=N)N)C(=O)NCC(=O)N[C@@H](CCCNC(=N)N)C(=O)N[C@@H](CC(C)C)C(=O)NCCOCCOCCNC(=O)CCCCC[N+]1=C(/C=C/C=C/C=C2/N(C)c3ccc4ccccc4c3C2(C)C)C(C)(C)c2c1ccc1ccccc21 [HHY-259B, AcWYRGRL-Cy 5.5] (Ac-WYRGRL-X4)
half-life (in vivo; [4]): 2.3 h
half-life (in vivo; [5]): 205 h

CC(=O)N[C@@H](Cc1c[nH]c2ccccc12)C(=O)N[C@@H](Cc1ccc(O)cc1)C(=O)N[C@@H](CCCNC(=N)N)C(=O)NCC(=O)N[C@@H](CCCNC(=N)N)C(=O)N[C@@H](CC(C)C)C(=O)NCCOCCOCCNC(=O)CN1CCN(CC(=O)NCCOCCOCCNC(=O)CCCCC[N+]2=C(/C=C/C=C/C=C3/N(C)c4ccc5ccccc5c4C3(C)C)C(C)(C)c3c2ccc2ccccc32)CCN(CC(=O)NCCOCCOCCNC(=O)[C@H](CC(C)C)NC(=O)[C@H](CCCNC(=N)N)NC(=O)CNC(=O)[C@H](CCCNC(=N)N)NC(=O)[C@H](Cc2ccc(O)cc2)NC(=O)[C@H](Cc2c[nH]c3ccccc23)NC(C)=O)CCN(CC(=O)NCCOCCOCCNC(=O)[C@H](CC(C)C)NC(=O)[C@H](CCCNC(=N)N)NC(=O)CNC(=O)[C@H](CCCNC(=N)N)NC(=O)[C@H](Cc2ccc(O)cc2)NC(=O)[C@H](Cc2c[nH]c3ccccc23)NC(C)=O)CC1 [HHY-290, (AcWYRGRL)3-DOTA-Cy5.5] (I: Ac-WYRGRL / II: Ac-WYRGRL / III: Ac-WYRGRL; linker I:C-II:C-III:C via X1)
half-life (in vivo; [4]): 8.9 h
half-life (in vivo; [5]): 1280 h
retained initial signal (knee joints of mice; 8 days after intra-articular injection, 0.1 μmol, mouse knee): 40%

CC(=O)N[C@@H](Cc1ccc(O)cc1)C(=O)N[C@@H](CCCNC(=N)N)C(=O)N[C@@H](CC(C)C)C(=O)NCC(=O)N[C@@H](CCCNC(=N)N)C(=O)N[C@@H](Cc1c[nH]c2ccccc12)C(=O)NCCOCCOCCNC(=O)CN1CCN(CC(=O)NCCOCCOCCNC(=O)CCCCC[N+]2=C(/C=C/C=C/C=C3/N(C)c4ccc5ccccc5c4C3(C)C)C(C)(C)c3c2ccc2ccccc32)CCN(CC(=O)NCCOCCOCCNC(=O)[C@H](Cc2c[nH]c3ccccc23)NC(=O)[C@H](CCCNC(=N)N)NC(=O)CNC(=O)[C@H](CC(C)C)NC(=O)[C@H](CCCNC(=N)N)NC(=O)[C@H](Cc2ccc(O)cc2)NC(C)=O)CCN(CC(=O)NCCOCCOCCNC(=O)[C@H](Cc2c[nH]c3ccccc23)NC(=O)[C@H](CCCNC(=N)N)NC(=O)CNC(=O)[C@H](CC(C)C)NC(=O)[C@H](CCCNC(=N)N)NC(=O)[C@H](Cc2ccc(O)cc2)NC(C)=O)CC1 [HHY-293, (AcYRLGRW)3-DOTA-Cy5.5] (I: Ac-YRLGRW / II: Ac-YRLGRW / III: Ac-YRLGRW; linker I:C-II:C-III:C via X1)
half-life (in vivo; First Half Life (h)): 3 h
half-life (in vivo; Terminal Half Life (h)): 19 h
Terminal Half Life (knee joints of mice; male, C57BL/6J, mouse, in vivo): 18.75 h

CC(=O)N[C@@H](Cc1c[nH]c2ccccc12)C(=O)N[C@@H](Cc1ccc(O)cc1)C(=O)N[C@@H](CCCNC(=N)N)C(=O)NCC(=O)N[C@@H](CCCNC(=N)N)C(=O)N[C@@H](CC(C)C)C(=O)NCCOCCOCCNC(=O)CN1CCN(CC(=O)NCCOCCOCCNC(=O)C[C@H](O)[C@H](CC(C)C)NC(=O)[C@H](C)NC(=O)C[C@H](O)[C@H](CC(C)C)NC(=O)[C@@H](NC(=O)[C@@H](NC(=O)CC(C)C)C(C)C)C(C)C)CCN(CC(=O)NCCOCCOCCNC(=O)[C@H](CC(C)C)NC(=O)[C@H](CCCNC(=N)N)NC(=O)CNC(=O)[C@H](CCCNC(=N)N)NC(=O)[C@H](Cc2ccc(O)cc2)NC(=O)[C@H](Cc2c[nH]c3ccccc23)NC(C)=O)CCN(CC(=O)NCCOCCOCCNC(=O)[C@H](CC(C)C)NC(=O)[C@H](CCCNC(=N)N)NC(=O)CNC(=O)[C@H](CCCNC(=N)N)NC(=O)[C@H](Cc2ccc(O)cc2)NC(=O)[C@H](Cc2c[nH]c3ccccc23)NC(C)=O)CC1 [HHY-299, (AcWYRGRL)3-DOTA-Pepstatin A]
IC50 (Cathepsin D): 3.3 nM
inhibition of GAG release ([1]; 24 hours after stimulation at pH 5.0): 34%
inhibition of GAG release ([1]; 48 hours after stimulation at pH 5.0): 18%

CC(=O)N[C@@H](Cc1c[nH]c2ccccc12)C(=O)N[C@@H](Cc1ccc(O)cc1)C(=O)N[C@@H](CCCNC(=N)N)C(=O)NCC(=O)N[C@@H](CCCNC(=N)N)C(=O)N[C@@H](CC(C)C)C(=O)NCCOCCOCCNC(=O)CN1CCN(CC(=O)NCCOCCOCCN)CCN(CC(=O)NCCOCCOCCN)CCN(CC(=O)NCCOCCOCCNC(=O)CCCCC[N+]2=C(/C=C/C=C/C=C3/N(C)c4ccc5ccccc5c4C3(C)C)C(C)(C)c3c2ccc2ccccc32)CC1 [HHY-312, AcWYRGRL-DOTA-Cy5.5]
half-life (in vivo; First Half Life (h)): 4 h
half-life (in vivo; Terminal Half Life (h)): 210 h
Terminal Half Life (knee joints of mice; male, C57BL/6J, mouse, in vivo): 210.7 h
fold mean increase of probe accumulation in cartilage vs non-targeted HHY-306 [2]: 11.2 fold
fold mean increase of probe accumulation in cartilage vs scrambled HHY-322 [2]: 6.0 fold

CC(=O)N[C@@H](Cc1ccc(O)cc1)C(=O)N[C@@H](CCCNC(=N)N)C(=O)N[C@@H](CC(C)C)C(=O)NCC(=O)N[C@@H](CCCNC(=N)N)C(=O)N[C@@H](Cc1c[nH]c2ccccc12)C(=O)NCCOCCOCCNC(=O)CN1CCN(CC(=O)NCCOCCOCN)CCN(CC(=O)NCCOCCOCCN)CCN(CC(=O)NCCOCCOCCNC(=O)CCCCCN2c3ccc4ccccc4c3C(C)(C)C2/C=C/C=C/C=C2/N(C)c3ccc4ccccc4c3C2(C)C)CC1 (some centres unmarked) [HHY-322, AcYRLGRW-DOTA-Cy5.5]
half-life (in vivo; First Half Life (h)): 1.67 h
half-life (in vivo; Terminal Half Life (h)): 13 h
Terminal Half Life (knee joints of mice; male, C57BL/6J, mouse, in vivo): 12.5 h

CC(C)CC(=O)N[C@H](C(=O)N[C@H](C(=O)N[C@@H](CC(C)C)[C@@H](O)CC(=O)N[C@@H](C)C(=O)N[C@@H](CC(C)C)[C@@H](O)CC(=O)NCCOCCOCCNC(=O)CN1CCN(CC(=O)NCCOCCOCCN)CCN(CC(=O)NCCOCCOCCN)CCN(CC(=O)NCCOCCOCCN)CC1)C(C)C)C(C)C [HHY-325]
IC50 (Cathepsin D): 2.9 nM

CC(C)CC(=O)N[C@H](C(=O)N[C@H](C(=O)N[C@@H](CC(C)C)[C@@H](O)CC(=O)N[C@@H](C)C(=O)N[C@@H](CC(C)C)[C@@H](O)CC(=O)O)C(C)C)C(C)C [Pepstatin A, reference compound] (Isovaleryl-VV[Sta]A[Sta]-OH)
solubility [3]: 820 µg/mL (≈ 1200 µM)
effect on acid-stimulated GAG release / degradation (FIG. 3) ([1]; pH 5.0): no effect at all; also recorded: not effective

AcNH-DOTA-Cy 5.5 [HHY-306]
First Half Life (knee joints of mice; mouse, in vivo): 0.5 h
Terminal Half Life (knee joints of mice; mouse, in vivo): 9.8 h
